From paper PMC8532158

How the values were obtained:
Assay in all cases: yeast surface display affinity sorting with deep sequencing (deep mutational scanning); BPTI single and double mutant library on yeast, sorted by FACS into four affinity gates (HI, WT, SL, LO) for each protease; NGS enrichments converted into ΔΔG_bind by a normalization formula fitted on ΔΔG_bind values of purified proteins
[1] = molecular target: BPTI K15A displayed on the yeast surface (bovine)
[2] = molecular target: BPTI A16S displayed on the yeast surface (bovine)
[3] = molecular target: BPTI K15R displayed on the yeast surface (bovine)

ΔΔG bind against BPTI WT [1]: 11.1 kcal/mol | ΔΔG bind against BPTI WT [2]: 4.5 kcal/mol | ΔΔG bind against BPTI WT [3]: -1.4 kcal/mol
Substance: bovine trypsin (enzyme)
